# Biological target: recombinant AvrM-A Δ28 with an N-terminal hexahistidine tag (Melampsora lini (flax rust))
# Test: SEC-MALS
substance,measurement,value
recombinant AvrM-A Δ28 with an N-terminal hexahistidine tag (natural protein),stoichiometry N,2
